We go through one molecule from PMC12170907 (2025).

The target of the assay is Superfolder-GFP-tagged M-HBsAg (serotype ayw, genotype D3) (Hepatitis B virus (serotype ayw, …)). Nature of the assay: ELISA.

B1: 3× HA-tagged FabHBC (Fab, V domains shown)
VH: ELQLVESGGGWVQPGGSQRLSCAASGRIFRSFYMSWVRQAPGKGLEWVATINQDGSEKLYVDSVKGRFTISRDNAKNSLFLQMNNLRVEDTAVYYCAAWSGNSGGMDVWGQGTTVSVSS
VL: SYELTQPPSVSVSPGQTVSIPCSGDKLGNKNVCWFQHKPGQSPVLVIYEVKYRPSGIPERFSGSNSGNTATLTISGTQAMDEAAYFCQTWDSTTVVFGGGTRLTVL
In general, Kd refers to a measure of binding affinity in units of concentration. A lower Kd goes with a tighter complex. Regarding B1, the Kd is 0.103 nM.
